Measurements from US20070149456A1, “Epithelial sodium channel inhibiting agents and uses therefor” (University of Pittsburgh, priority 2005, published 2007).

Biological target: T1, mouse ENaC (Mus musculus, UniProt Q61180+Q9WU38+Q9WU39, DEL206-231)
T1 construct: expressed in transfected cells; host or cells: Xenopus laevis oocytes (cRNA injection)
T1 sequence (Q61180 with tags, fused parts or gaps DEL206-231): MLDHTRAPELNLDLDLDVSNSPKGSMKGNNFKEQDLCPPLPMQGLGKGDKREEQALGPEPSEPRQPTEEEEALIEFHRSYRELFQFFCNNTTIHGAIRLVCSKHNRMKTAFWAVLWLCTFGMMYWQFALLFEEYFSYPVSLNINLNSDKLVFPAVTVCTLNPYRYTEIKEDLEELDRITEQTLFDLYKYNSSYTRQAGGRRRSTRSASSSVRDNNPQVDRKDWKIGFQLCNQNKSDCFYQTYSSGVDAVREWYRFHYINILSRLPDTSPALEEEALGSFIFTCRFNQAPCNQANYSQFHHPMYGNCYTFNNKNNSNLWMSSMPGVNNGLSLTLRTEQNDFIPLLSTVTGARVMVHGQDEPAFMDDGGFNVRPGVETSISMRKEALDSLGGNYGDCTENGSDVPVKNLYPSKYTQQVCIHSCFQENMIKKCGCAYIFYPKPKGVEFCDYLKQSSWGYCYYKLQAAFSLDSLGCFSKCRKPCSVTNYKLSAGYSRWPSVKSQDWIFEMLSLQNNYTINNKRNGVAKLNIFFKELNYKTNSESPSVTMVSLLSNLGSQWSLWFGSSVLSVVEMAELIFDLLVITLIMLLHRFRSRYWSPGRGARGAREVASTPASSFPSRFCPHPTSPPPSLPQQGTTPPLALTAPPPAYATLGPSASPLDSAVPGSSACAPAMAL
T1 sequence (Q9WU38 1-638): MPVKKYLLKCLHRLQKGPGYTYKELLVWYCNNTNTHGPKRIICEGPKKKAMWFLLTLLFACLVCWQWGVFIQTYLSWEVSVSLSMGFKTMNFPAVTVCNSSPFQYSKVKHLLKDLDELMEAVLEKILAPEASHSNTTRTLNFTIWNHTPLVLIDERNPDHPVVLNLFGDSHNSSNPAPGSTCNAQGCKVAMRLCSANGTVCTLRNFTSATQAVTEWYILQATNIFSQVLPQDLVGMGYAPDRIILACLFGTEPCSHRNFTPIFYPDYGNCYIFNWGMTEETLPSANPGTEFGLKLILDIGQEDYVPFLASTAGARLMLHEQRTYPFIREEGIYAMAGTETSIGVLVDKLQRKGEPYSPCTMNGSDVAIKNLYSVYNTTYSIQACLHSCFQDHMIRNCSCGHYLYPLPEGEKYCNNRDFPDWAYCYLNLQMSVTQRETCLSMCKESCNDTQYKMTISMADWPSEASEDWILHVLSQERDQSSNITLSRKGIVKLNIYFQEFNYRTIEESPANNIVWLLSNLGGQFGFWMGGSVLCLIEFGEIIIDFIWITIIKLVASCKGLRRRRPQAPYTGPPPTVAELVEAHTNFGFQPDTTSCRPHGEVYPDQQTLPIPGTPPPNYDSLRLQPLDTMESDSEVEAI
T1 sequence (Q9WU39 1-655): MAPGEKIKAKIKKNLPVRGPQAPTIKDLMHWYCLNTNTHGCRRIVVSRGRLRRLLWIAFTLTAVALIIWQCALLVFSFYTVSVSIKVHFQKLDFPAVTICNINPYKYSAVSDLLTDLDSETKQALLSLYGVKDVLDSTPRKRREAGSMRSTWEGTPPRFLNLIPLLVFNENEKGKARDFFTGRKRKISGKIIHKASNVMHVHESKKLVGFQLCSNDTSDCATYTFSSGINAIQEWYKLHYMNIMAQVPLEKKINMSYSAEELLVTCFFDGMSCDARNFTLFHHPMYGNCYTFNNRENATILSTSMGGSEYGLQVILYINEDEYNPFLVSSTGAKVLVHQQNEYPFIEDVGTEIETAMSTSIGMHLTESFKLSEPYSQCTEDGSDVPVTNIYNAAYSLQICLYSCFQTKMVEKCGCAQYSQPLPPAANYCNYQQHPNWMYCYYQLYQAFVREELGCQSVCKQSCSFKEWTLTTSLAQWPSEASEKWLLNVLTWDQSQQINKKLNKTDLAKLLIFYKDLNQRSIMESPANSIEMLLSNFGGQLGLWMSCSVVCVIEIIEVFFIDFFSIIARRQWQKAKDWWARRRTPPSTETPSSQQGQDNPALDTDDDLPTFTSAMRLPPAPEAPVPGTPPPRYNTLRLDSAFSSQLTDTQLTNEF
Assay: Two-electrode voltage clamp, amiloride-sensitive whole cell Na+ current in Xenopus oocytes expressing wild-type αβγ ENaC
Format: cell-based
Details: peptide 10 μM (FIG. 3B)
Source text: Oocyte Expression—cRNAs for α, β, γ mouse ENaC (wild-type and mutant) subunits and mouse prostasin were synthesized with T3 or T7 m-Message mMachineTM (Ambion, Austin, Tex.). Subunits carrying furin cleavage consensus site mutations and the corresponding wild-type subunits have amino-terminal HA and carboxyl-terminal V5 tags (Hughey, R. P., Bruns, J. B., Kinlough, C. L., Harkleroad, K. L., Tong, Q., Carattino, M. D., Johnson, J. P., Stockand, J. D., and Kleyman, T. R. (2004) J. Biol. Chem. 279, 18111-18114 18). Stage V-VI Xenopus laevis oocytes were pretreated with 1.5 mg/ml of type IV collagenase and injected with 0.5-2 ng of cRNA/subunit. Injected oocytes were maintained as previously reported (Carattino, M. D., Hill, W. G., and Kleyman, T. R. (2003), Arachidonic Acid Regulates Surface Expression of Epithelial Sodium Channels, J Biol. Chem. 278, 36202-36213 29).
Two-electrode Voltage Clamp—Two-electrode voltage clamp (TEV) was performed as previously described (Carattino, M. D., Hill, W. G., and Kleyman, T. R. (2003) J Biol. Chem. 278, 36202-36213 29). The extracellular solution (TEV solution) was (in mM): 110 NaCl, 2 KCl, 1.54 CaCl2, 10 HEPES, pH 7.4, or otherwise as indicated. […] Experiments with oocytes co-expressing ENaC and prostasin and the corresponding controls were performed in the presence of aprotinin (1 μM) to impede any potential degradation of α-26 by prostasin.
Data and Statistical Analyses—and mean time of inhibition are expressed as the mean with a 95% confidence interval (CI); otherwise, data were expressed as the mean ±S.E. (n), where “n” equals the number of independent experiments analyzed. IC50 was estimated from normalized currents plotted as a function of the peptide concentration fitted, as shown in Equation 1 y=t/(1+10^(logX−log/C50)) (Eq. 1) where y is the response variable, X is the concentration of peptide, and IC50 is the concentration of peptide that provokes a response half way between the baseline (t) and maximum response. […] Results

Sequence | block of ENaC currents by related peptides
DLRGALAHALQRLRTAAAANAARSAR (Ac-DLRGALAHALQRLRTAAAANAARSAR-NH2) [P/A] | significant reduction in the block
DLEGALPHPLQELETPPPPNPAESAE (Ac-DLEGALPHPLQELETPPPPNPAESAE-NH2) [R/E] | significant reduction in the block
